Measurements: patent US20260265359A1 (Hoffmann-La Roche, published 2026)
Like-named read-outs stand apart in the source and are kept apart here.

T1: human Ang-1-Fc (human, UniProt Q15389 20-498, limits assumed)
T1 construct: not shown: Fc part
T1 sequence (looked up): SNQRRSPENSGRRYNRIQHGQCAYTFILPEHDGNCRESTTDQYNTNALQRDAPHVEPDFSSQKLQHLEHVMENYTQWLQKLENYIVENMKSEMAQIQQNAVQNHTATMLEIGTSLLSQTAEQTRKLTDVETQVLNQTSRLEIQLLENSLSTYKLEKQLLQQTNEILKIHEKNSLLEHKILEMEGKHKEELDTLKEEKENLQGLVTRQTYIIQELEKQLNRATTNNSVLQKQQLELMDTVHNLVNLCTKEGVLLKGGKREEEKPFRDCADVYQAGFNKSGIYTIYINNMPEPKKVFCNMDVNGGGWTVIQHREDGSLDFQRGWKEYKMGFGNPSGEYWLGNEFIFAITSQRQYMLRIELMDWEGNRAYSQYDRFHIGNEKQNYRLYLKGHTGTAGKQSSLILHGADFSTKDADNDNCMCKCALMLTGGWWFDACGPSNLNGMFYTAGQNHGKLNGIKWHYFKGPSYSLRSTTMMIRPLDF

T2: recombinant human IL-6R (human, UniProt P08887 20-365, limits assumed)
T2 construct: Recombinant protein used in ELISA and as SPR analyte; also called hIL-6R
T2 sequence (looked up): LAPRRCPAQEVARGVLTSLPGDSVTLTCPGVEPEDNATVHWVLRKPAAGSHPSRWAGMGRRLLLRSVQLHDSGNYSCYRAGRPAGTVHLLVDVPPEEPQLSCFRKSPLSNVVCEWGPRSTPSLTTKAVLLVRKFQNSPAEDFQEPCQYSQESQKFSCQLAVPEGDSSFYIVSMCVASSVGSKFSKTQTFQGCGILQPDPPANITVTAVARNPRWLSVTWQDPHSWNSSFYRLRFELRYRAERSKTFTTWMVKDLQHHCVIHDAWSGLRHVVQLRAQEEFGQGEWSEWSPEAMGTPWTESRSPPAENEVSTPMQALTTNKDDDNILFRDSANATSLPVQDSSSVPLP

T3: human IL-6R overexpressed on engineered CHO-S cells (human, UniProt P08887 20-468)
T3 construct: whole, on cells; also called IL-6R-expressing CHO-S cells
T3 sequence (looked up): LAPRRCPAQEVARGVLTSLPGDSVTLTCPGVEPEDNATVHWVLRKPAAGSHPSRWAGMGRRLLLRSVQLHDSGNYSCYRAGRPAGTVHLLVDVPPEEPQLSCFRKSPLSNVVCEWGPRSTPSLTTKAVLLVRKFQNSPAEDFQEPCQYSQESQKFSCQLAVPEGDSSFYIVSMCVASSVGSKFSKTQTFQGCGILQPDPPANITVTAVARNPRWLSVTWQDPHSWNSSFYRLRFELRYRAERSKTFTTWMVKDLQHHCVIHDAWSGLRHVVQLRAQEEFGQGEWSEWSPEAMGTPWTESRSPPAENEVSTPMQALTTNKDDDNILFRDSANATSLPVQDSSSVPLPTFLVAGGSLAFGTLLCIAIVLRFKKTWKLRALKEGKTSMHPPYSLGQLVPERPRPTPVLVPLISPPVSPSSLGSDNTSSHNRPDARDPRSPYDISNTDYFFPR

B1: hTie2 (receptor)
chain: AMDLILINSLPLVSDAETSLTCIASGWRPHEPITIGRDFEALMNQHQDPLEVTQDVTREWAKKVVWKREKASKINGAYFCEGRVRGEAIRIRTMKMRQQASFLPATLTMTVDKGDNVNISFKKVLIKEEDAVIYKNGSFIHSVPRHEVPDILEVHLPHAQPQDAGVYSARYIGGNLFTSAFTRLIVRRCEAQKWGPECNHLCTACMNNGVCHEDTGECICPPGFMGRTCEKACELHTFGRTCKERCSGQEGCKSYVFCLPDPYGCSCATGWKGLQCNEACHPGFYGPDCKLRCSCNNGEMCDRFQGCLCSPGWQGLQCEREGIQRMTPKIVDLPDHIEVNSGKFNPICKASGWPLPTNEEMTLVKPDGTVLHPKDFNHTDHFSVAIFTIHRILPPDSGVWVCSVNTVAGMVEKPFNISVKVLPKPLNAPNVIDTGHNFAVINISSEPYFGDGPIKSKKLLYKPVNHYEAWQHIQVTNEIVTLNYLEPRTEYELCVQLVRRGEGGEGHPGPVRRFTTASIGLPPPRGLNLLPKSQTTLNLTWQPIFPSSEDDFYVEVERRSVQKSDQQNIKVPGNLTSVLLNNLHPREQYVVRARVNTKAQGEWSEDLTAWTLSDILPPQPENIKISNITHSSAVISWTILDGYSISSITIRYKVQGKNEDQHVDVKIKNATITQYQLKGLEPETAYQVDIFAENNIGSSNPAFSHELVTLPESQAPADLGGGKMLL
notes: also called human Tie-2 ECD; recombinant hTie-2
B2: Tocilizumab (antibody, V domains shown)
VH: QVQLQESGPGLVRPSQTLSLTCTVSGYSITSDHAWSWVRQPPGRGLEWIGYISYSGITTYNPSLKSRVTMLRDTSKNQFSLRLSSVTAADTAVYYCARSLARTTAMDYWGQGSLVTVSS
VL: DIQMTQSPSSLSASVGDRVTITCRASQDISSYLNWYQQKPGKAPKLLIYYTSRLHSGVPSRFSGSGSGTDFTFTISSLQPEDIATYYCQQGNTLPYTFGQGTKVEIKR
notes: mAb against human IL-6R used as comparator
B3: Vobarilizumab (VHH)
VHH 1: EVQLVESGGGLVQPGGSLRLSCAASGSVFKINVMAWYRQAPGKGRELVAGIISGGSTSYADSVKGRFTISRDNAKNTLYLQMNSLRPEDTAVYYCAFITTESDYDLGRRYWGQGTLVTVSS
VHH 2: QIILTQSPAIMSASLGEEITLTCSATSSVTYVHWYQQKSGTSPKLLIYGTSNLASGVPSRFSGSGSGTFYSLTVSSVEAEDAADYYCHQWNSYPHTFGGGTKLEIK

How the values were obtained:
[1] = molecular target: T1, human Ang-1-Fc; assay: FACS competition: soluble recombinant hTie-2 (positive control) pre-incubated with 2 µg/ml human Ang-1-Fc, then HEK-293 cells overexpressing human Tie-2; blocked: Ang-1-Fc binding to cell-bound Tie-2
[2] = molecular target: T1, human Ang-1-Fc; assay: FACS competition: soluble human Tie-2 ECD (positive control) pre-incubated with 2 µg/ml human Ang-1-Fc, then HEK-293 cells overexpressing human Tie-2; blocked: Ang-1-Fc binding to cell-bound Tie-2
[3] = molecular target: T2, recombinant human IL-6R; assay: SPR Biacore, 25 C; test antibody captured by anti-human IgG (Fc) on CM5 chip, target protein as analyte; 1:1 model
Protocol: (§1) SPR Biacore assay was performed at 25° C. with HBS-EP+ as a running buffer. The assay was performed by immobilization of the anti-human IgG (Fc) antibody onto the CM5 sensor chip surface and determined the level of ligand immobilization. […] Test antibodies were injected over the surface of Series S Sensor Chip CM5 as Capture. The analytes (target proteins) were diluted with running buffer into different concentrations and injected over the sensor surface as the association phase for affinity and kinetics measurements. The 1:1 binding model was used to measure the binding affinity and/or kinetics.

[4] = molecular target: T3, human IL-6R overexpressed on engineered …; assay: FACS competition: antibody with biotinylated human IL-6 and CHO-S cells overexpressing human IL-6R; blocked: IL-6 binding to IL-6R
Source text: (§2) Vobarilizumab is a single domain antibody (also termed nanobody) against human IL-6R.

[5] = molecular target: T2, recombinant human IL-6R; assay: ELISA on plate-coated recombinant human IL-6R; anti-human IgG1-Fc-HRP, OD450
Protocol: (§3) After non-specific blocking using 1% BSA at 25° C. for 1 hour, a series of dilutions of test antibodies (“Abs”) were added into the coated wells and incubated at 25° C. for 1 hour. The bound Abs were detected using a secondary Ab (goat anti-human IgG1-Fc) conjugated with HRP followed by OD₄₅₀ reading.
(§4) The same ELISA procedure was performed with recombinant human IL-6R. […] Vobarilizumab is a single domain antibody against IL-6R. B781402 and B781405 are bispecific fusion antibodies that inhibit VEGF-A, B, PIGF and IL-6R.

[6] = molecular target: T3, human IL-6R overexpressed on engineered …; assay: FACS competition: antibody with biotinylated human IL-6 and CHO-S cells overexpressing human IL-6R; blocked: IL-6 binding to IL-6R; remark: listed apart in the source
Source text: as §2

[7] = molecular target: T2, recombinant human IL-6R; assay: SPR Biacore, 25 C; test antibody captured by anti-human IgG (Fc) on CM5 chip, target protein as analyte; 1:1 model; remark: listed apart in the source
Protocol: as §1

[8] = molecular target: T2, recombinant human IL-6R; assay: ELISA on plate-coated recombinant human IL-6R; anti-human IgG1-Fc-HRP, OD450; remark: listed apart in the source
Protocol: as §3, §4

Row | Binder | IC50 [1] [nM] | IC50 [2] [nM] | Kd [3] [nM] | koff [3] [s⁻¹] | kon [3] [M⁻¹ s⁻¹] | IC50 [4] [nM] | EC50 [5] [nM] | IC50 [6] [nM] | Kd [7] [nM] | koff [7] [s⁻¹] | kon [7] [M⁻¹ s⁻¹] | EC50 [8] [nM]
1 | B1 | 53 | 42.9 |  |  |  |  |  |  |  |  |  | 
2 | B2 |  |  | 1.1 | 0.00046 | 420000 | 1.82 | 0.028 | 0.756 | 1.4 | 0.000521 | 373000 | 0.05
3 | B3 |  |  |  |  |  |  | 1.36 |  |  |  |  | 1.39
